Experimental findings from the DeepSol protein solubility set are described below.

This data set is described as follows: soluble on expression in E. coli; label from the status in PepcDB or PDB records.
“MNRSIDSIIAKKVSHDVGILIFQYLNDIEPLIQQSLTAAKLKDFYGLKGKYSKGRFVCPFHHGADNPTSLSMNDNKRCFHCNACGKSGTYLEFIMYMQNISGRNSYNDAKIFAANHFTKLNLGFNSIADFEQKLKDKILERYRKTNSLRYTDYYDIWLLPERYFSSKEQSQVRQYQEEQQTKPSLEVSLSNSTNKPGFILESLDLEMTIRHLKAQNIIVNGITDYDEAVQVAKNSKLIKDFTKNADKLNSVDKLTDYMSKKYNIDIDTALKYGLIFFDKSSQHQLYYSDFFMLNNRVLFPVRDHETGIIVGYQCRRTDLSAPRHYKYLNITDYQDNLITNENGTTYRDFVPFKVGNFLFNLYELKGKCINTLWITEGIADAIKLSSMGYDAVSLGQANLTDYQIYLIDKYFGKDVTLNLFFDNDDNKIGQNKSIAAAYRLWQFGFRNIRIINTFKEMGKDITDCSVKLHDDDMLRLFINHWEKQAYSFAPASNEDLSALLKTGLYSESEILFIDPRDVERIISFGEMLNKYLDFKNMTYQQLKLLKKLCSFKEDEIKILLSLSTKDFLDVQNTNEQSCHKEQL”: the “soluble on expression in E. coli” value was “not soluble”.
Turning to “MKIGILTQPLSNNYGGILQALALQTVLRSMGHETVILSREYDYPPFRLCLMRILSVLKCIVRKYILRDNRAIIANPFLHFYATDKTQVYDDNEIQAFIRKNLKCSVRLQSTWILKIYVRLHHFDAFLVGSDQVWRESFSPCITNFFLDFLSQKCRAKRIAYGASFGVEQNPISVASLNQCVELAKRFDAISVREQSGVKIMKETFHLSACQVLDPTLLLPVDFYRSFMQKSDMDSSGLVSYLLDGNEEKRNIIAVAREQLQLSQTELLLFPSRYKDEVPRFSSVSSWLSAFANADFVVTDSFHGCVFSIIFRKPFVVISNSGRGNERFFSLLDTFGLNDRLVFSYEEFVDKEEILLIEQDYTEVERKYENLKVKSLEFLFQALNEN”, the “soluble on expression in E. coli” value was “not soluble”.
For the sequence “MSQRIIQPSASDQQFPGKSDGYEYTVGPKQAITSEASTTYIPSRIYSESLLFKRQEASLSAMAFLFQEMISQLHRTCKTAGDFETKLSDYGHNIGIRLLELLNFRASVSPSSLPRASAFLSQNESSSKLSNASNSPGMLANSSTATSASANERLQEKQTESLSNYITKMRRRDLKILDILQFIHGTLWSYLFNHVSDDLVKSSERDNEYMIVDNFPTLTQFIPGENVSCEYFVCGIIKGFLFNAGFPCGVTAHRMPQGGHSQRTVYLIQFDRQVLDREGLRFG”, the “soluble on expression in E. coli” value is on record as “soluble”.
For the sequence “MSLSNSLLPPNASGLERDIEQVIVQSTDLPIRIKDLWNPYSCHLSLLPWLAWALSVDEWDDRWPEHIKRQVVQDSFDVHRFKGTPYAVQKALDSLNIKTHLREWWEPDGSQEPGTMTVVALINENLTDDDNGLITEAMLEQVTRVIHTAKRGVIHFDVELGISLDETLGFSGAIGPSIAEIDFSSDFLPIVPEKGSADMAFSAALYGIGSADFLADMSGVVPDESSSHVFVCGGLAGISASWLEFEGDLEGHHHHHH”, the “soluble on expression in E. coli” value is listed as “soluble”.
For “MGAGASAEEKHSRELEKKLKEDAEKDARTVKLLLLGAGESGKSTIVKQMKIIHQDGYSLEECLEFIAIIYGNTLQSILAIVRAMTTLNIQYGDSARQDDARKLMHMADTIEEGTMPKEMSDIIQRLWKDSGIQACFDRASEYQLNDSAGYYLSDLERLVTPGYVPTEQDVLRSRVKTTGIIETQFSFKDLNFRMFDVGGQRSERKKWIHCFEGVTAIIFCVALSDYDLVLAEDEEMNRMHESMKLFDSICNNKWFTDTSIILFLNKKDLFEEKIKKSPLTICYPEYAGSNTYEEAGNYIKVQFLELNMRRDVKEIYSHMTCATDTQNVKFVFDAVTDIIIKENLKDCGLF”, the “soluble on expression in E. coli” value is reported as “soluble”.
As to “GSGSRMKTVDKSKTLTKFEEFFSLQDYKDRVFEAIEKYPNVRSIEVDYLDLEMFDPDLADLLIEKPDDVIRAAQQAIRNIDRLRKNVDLNIRFSGISNVIPLRELRSKFIGKFVAVDGIVRKTDEIRPRIVKAVFECRGCMRHHAVTQSTNMITEPSLCSECGGRSFRLLQDESEFLDTQTLKLQEPLENLSGGEQPRQITVVLEDDLVDTLTPGDIVRVTGTLRTVRDERTKRFKNFIYGNYTEFLEQEFEELQISEEDEEKIKELAGDPNIYEKIIR”, the “soluble on expression in E. coli” value is “soluble”.
“MAHHHHHHMCPPKNENERGTEGQPAKNTESADTLKRKLSELYAEEGCQYGENGQPEDTSHLVSSGSAGKKRETATEKRNPEEVREKENAHEKKEDNEVDQNGQTSTSKTNTKKHRSSTDEPPNRRKKKKRKKKFNDNGEVTKPSKQMIRINYLLQASFLMNELNPNISREYIKTMRKLSNKFLIKHDKKFKKLFCKKCNSVLIPSATCKVSVNPLNLRKKKKNKNEEVSSNLNGKLRDEFLVSYRCNYCQHDTKFVYENGLTAPRANGTEAV”: the “soluble on expression in E. coli” value is “soluble”.
